Assay results published in the nanobody polyreactivity screen of Harvey et al. (2022).

Assay: yeast display, Sf9 membrane polyspecificity reagent, FACS + sequencing; frameworks hold sequencing errors
Summary of the method: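 A synthetic nanobody library was expressed on Saccharomyces cerevisiae BJ5465 by galactose induction for 36–48 hours. The library was stained for 1 hour at 4 °C with 10% biotinylated, detergent-solubilized Sf9 membrane reagent and enriched with streptavidin microbeads before FACS. Low and high (top ~1%) gates were set on anti-HA fluorescence for expression and streptavidin fluorescence for reagent binding, and each polyreactivity label reflects the gate of origin.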

Sequence: QVQLVESGGCLVQSGGSLRLSCAASGSTFRGYAMGWYRQAPGKEREFVAAISKGGASTYYADSVKGRFTISRDNAMNTVYLQMNSLKPEDTAVYYCAKGAYRRAYGTYYYWGQGTQVTVSS
- polyreactivity (PSR sort gate): high polyreactivity

Sequence: QVQLVESGGGLVQAGGSLRLSCAASGLIFSSNAMGWYRQAPGKERELVATISWSGGSTYYADSVKGRFTISRDNAKNTVYLQMNSLKPEDTAVYYCAAVTHPAWAVEYDYWGQGTQVTVSS
- polyreactivity (PSR sort gate): high polyreactivity

Sequence: QVHLVESGGGLVQAGGSLRLSCAASGSTFDDNTMGWYRQAPGKERELVAAISSDSSTNYADSVKGRFTISRDNAKNTVYLQMNSLKPEDTAVYSCATRSRTTKIVRWPGMYYWGQGTQVTVSS
- polyreactivity (PSR sort gate): high polyreactivity

Sequence: QVQLVESGGGLVQAGGSLRLSCAASGSTFYYYAMGCYRQAPGKERELVAAINSSGGNTYYADSVKGRFTISRDNAKNTVYLQMNCLKPEDTAVYYCATEYYWLQDYDYWGQGTQVTVSS
- polyreactivity (PSR sort gate): low polyreactivity

Sequence: QDQHVESGGGLVQAGGTLRISCAASGFTFYVYAMGWYRQAPGKEMELVASISKSGGSTYYADSVKGRFTITRDNAKNTVFLQMNSLKTVDTAVYYCAVYDKRSCYRGGHRYNSCGQGTQVTVSS
- polyreactivity (PSR sort gate): high polyreactivity

Sequence: QVQLVESGGGLVQAGGSLRLSCAASGRTFAINARGWYRQAPGKERELVAAITTSGGGTYYADSVKGRFTISRDNAKNTVYLQMNSLKPEDTAVYYCAAGTSYYTYRFYAWDYDYWGQGTQVTVSS
- polyreactivity (PSR sort gate): low polyreactivity

Sequence: QVQLVESGGGLVQAGGSLRLSSAASGRIFFHNAMGWCRQAPGKDRELVAAIRSSTGSTYYADSVKGRFTISRDNAKNTVYLQMNSLKPEDNAVYYCAARSYDKYSRRVWGLGYWGQGTQVTVSS
- polyreactivity (PSR sort gate): high polyreactivity

Sequence: QVQLVESGGGLVQEGGSLRLSCAASGSIFFYYAMGWYRPAPGKERELVAAIRSGTSTNYADSVKGRFTISLDNAKNTVYLQMNSLKPEDTAVYYCNKDTDWSWSAITSPIFDYWGQGTQVTVSS
- polyreactivity (PSR sort gate): low polyreactivity

Sequence: QVQLVESGGGLVHAGGSLRLSCAASGRIFGPYAMGWYRQAPGKERELVAAISRSGSTTYYAVSVKGRFTISRDNAKNTVYLQMNSLKPDDTAVYYCNGRRYRVVQSKPCDYWGQGTQVTVSS
- polyreactivity (PSR sort gate): high polyreactivity

Sequence: QVQLVESGGGLVQAGGSLRLSCAASGRTLAHYTMGWYRQAPGKERELVAAITFSGGRTYYADSVKGRFTISRDNAKNTVYLQMNSQKPEDTAVYYCAAPGRWYYRGDDYWGQGTQVTVSS
- polyreactivity (PSR sort gate): low polyreactivity

Sequence: QVQLVESGGGLVQAGGSLRLSCAASGRTFAPYAMGWYRQAPGKERELVAAITSGGSTYYADSVKGRFTISRDNAKNTVYLQMNSLKPEDTAVYYCAAKFVGTTVSEYGYWGQGTEVTVSS
- polyreactivity (PSR sort gate): low polyreactivity

Sequence: QVQLVESGGGLVQAGGSLRLSCAASGRIIRYYAMGWYRQAPGKETELVAITSSGGRTYYADSVKGRFTISRDNAKNTVYLQMNSLKPEDTAVYYCAVDAHWPGRGERFIRLDYWGQGTQVSVSS
- polyreactivity (PSR sort gate): low polyreactivity

Sequence: QVQLVESGGGLVQAGGSLRLSCAASGFTFPIYAMGWSRQAPGKEWELVAAISKGGARTYYADSVKGRFTISRDNAKNTVYLQMNSLNPEDTAVYYCAALGPGGWYDYWGQGTQVTVSS
- polyreactivity (PSR sort gate): high polyreactivity

Sequence: QVQLVESGGGIVQAGGSLRLSCAASGSIFKRYAMGWYRQAPGKERELVAAISWSGGNTYYADSVKGRFTISRDNAKYTVYLQMNILKPEDTAVYYCNAGYSYFGPGRGRFRYYYWGQGTQVTVSS
- polyreactivity (PSR sort gate): high polyreactivity

Sequence: QVQLVESGGGLVQAGGSLRLSSAASGSTFFSYAMGWYRQAPGKERELVAAISWIDDGTYYADSVKGRFTISRDNAKNTVYLQMNSLKPEDTAVYYCAADIGAYRTWDYEYWGQGTQVTVSS
- polyreactivity (PSR sort gate): low polyreactivity

Sequence: QVQLVESGGGLVQAGGSLRLICAASGRTFNGYAMGWYRQAPGKERELVAAINASGGRTYYADSVKGRFTISRDNAKNTVYLQMNSLKPEDTAVYYCNARRYHWSVYYYDYWGQGTQVTVSS
- polyreactivity (PSR sort gate): high polyreactivity

Sequence: QVQLVESGGGLVQAGGSLRLSCAASGRTFAPYAMVWYRQAPGKERELVAAITYSGGSTYYADSVKGRFTISRDNAKNTVYLQMNSLIPADTAVYYCAADSDYDPYDYWGQGTQVTVSS
- polyreactivity (PSR sort gate): low polyreactivity

Sequence: QVQLVESGGGLVQAGGRLRLSCAASGYTFSIYDMGWYRPAPGKERELVAAISWSGGSTYYADSVKGRFTISRDHAKNTVYLQMNSLKPEDTAVYYCAAKRHGSEVGRGRDYWGQGTQVTVSS
- polyreactivity (PSR sort gate): high polyreactivity

Sequence: QVQLVESGGGLVQAGGSLRLSCAASGSIYPNAMGWNRQAPGKERELVAAIRRSSGSTYADSVKGRFTISRDNAKNTVYLQMNSLKPEDTAVYYCAAEWFAQPVGYDYWGQGTQVTVSS
- polyreactivity (PSR sort gate): high polyreactivity

Sequence: QVQLVESGGGLVQAGGSLRLSCAASVSNIKYNAMGWYRQAPGKERELVAAISSSGGTTYYADSVKGRFTISRDNAKNTVYLQMNSLKPEDTAVYYCNKYFRAGNGYGEEDYWGQGTQVTVSS
- polyreactivity (PSR sort gate): high polyreactivity

Sequence: QVQLVESGGGLVQAGGSLRLSCAASGRTFVRNAMGWYRQAPGKVRELVAAISSIGDSTYYADSVKGRFTISRDNAKNTVYLQMNSLKPEDTAVYYSNARGYVYYRMGYWGQGTQETVSS
- polyreactivity (PSR sort gate): low polyreactivity

Sequence: QVQLVESGGGLVQAGGSLRLSFAASGSNFGPNGMGWYRQAPGKERELVARIDRIGGGTYYADSVKGRFTISRDNAKNNVYLKMNSLKPEETAVYYCAKSGSAYWHSGWSVGFDYWGQGTQVTLSS
- polyreactivity (PSR sort gate): low polyreactivity

Sequence: QDQLVESGGGLVQAGGSLRLSCAASGSIFRAYAMGWYRQAPGKERELVAAISRSGDSTYYADSVKGRFTISRDNAKNTVYLQMNSLKPEDTAVYYCAAQRKPYVRPSGPYKRRDYWGQGTQVTVSS
- polyreactivity (PSR sort gate): high polyreactivity

Sequence: QVQLVESGGGLVQAGGSLRLSCAASGYIFRWYAMGWYRQAPGKERELVARITNGARTYYADSVKGRFTISRDNAKNTVYLQMNSLKPEDTAVYYCAATVPPTYRRYYYWGQGTQVTVSS
- polyreactivity (PSR sort gate): high polyreactivity

Sequence: QVQLVESGVGLVQAGGSLRLSCAASGITFSSYAMGWYRQAPGKERELVAAITRSGSTTYADSVKGRFTISRDNAKNTVYLQMNSLKPEDTAVYYCAVDYYYLTGGVDYWGQGTQVTVSS
- polyreactivity (PSR sort gate): low polyreactivity

Sequence: QVQLVESGAGFFQAGGSLRVSCAASGRTFPVYAMGWYRHAPGNERELVARINSGGRTTYADSVKGRFTISRDNAKNTVYLQMISLNPEDTAVYYCNARSWYYVWRKGYRHGDYWGQGTQVTVSS
- polyreactivity (PSR sort gate): high polyreactivity

Sequence: QVQLVESGGGLVQAGGSLRLSCAASGSTFVANVMGWYRQAPGKERELVAAINTNGGSTYYADSVKGRFTISRDNAKNTVYLQMNSLKPEDTAVYYCNKAWFRYWYGYWGQGTQVTVSS
- polyreactivity (PSR sort gate): low polyreactivity

Sequence: QVQLVESGGGLVQAGGSLRLSCAASGSTFSDNAMGWYRQAPGKDRELVAAINYSDGSTNYADSVKGRFTISRDNAKNTVYLQMNSLKPEDTAVYYCAVDIYFWCYGWWGPYDYWGQGTQVTVSS
- polyreactivity (PSR sort gate): low polyreactivity

Sequence: QVQLVESGGGLVQAGGSLRLSCAASGGTFFTNAMGWYRQAPGKERELVAVITGSGGRTYYADSVKGRFTISRDNAKNTVYLQMNSLKPEDTAVYYCAARGYSWGQGTQVTVSS
- polyreactivity (PSR sort gate): high polyreactivity

Sequence: QVQLVESGGGLVQAGGSLRLSCAASGRTFRQYAMGWYRQAPGKERELVATISSGGSTYYADSVKGRFTISRDNAKNTVYLLMNSLKPEDTAVYYCAAPYWARKYWRKFGPFDYWGQGTQVTVSS
- polyreactivity (PSR sort gate): low polyreactivity

Sequence: HVQLVETGGGLVQAGGSLRLSCAASGRIFYPYPMGWYRQAPRKERELLARISWGGGATYYADSVKGRFTISRDNAQNTVFLQMNSLKPEDTAVYYCAASYVGYWYRRGYGYWGQGTQVTVSS
- polyreactivity (PSR sort gate): high polyreactivity

Sequence: QVQLVESGGGLVQAGGSLRLSCAASGFTFRRYDMGWYRQAPGKERELVATLNRGGSTDYADSVKGRFTISRDNAKNTVYFQLNSLKPEETAVYYCATRYYSSRNWSEYYYWGQGTQVTVSS
- polyreactivity (PSR sort gate): high polyreactivity

Sequence: QVQLQESGGGKVHAGGSLRLSCAASGSISYASGMVWYRQAPGKEREFVASIDPGAITNYADSVKGRFTNSHDNAKNTVYLQMNSLKPEDTAVYYCAARVSTTDSHGYWGQGTQVTVSS
- polyreactivity (PSR sort gate): high polyreactivity

Sequence: QGQLVDSGGGLVQAGGSLRLSCAASGSTFKNNAMGWYRQAPGKEREFVASISKRGGSTYYADSVKGRFTISRDNAKNTVYLQMNSMKPEDTAVYYCAKTYWSYGLSHGDYGEFDYWGQGTQVTVSS
- polyreactivity (PSR sort gate): high polyreactivity

Sequence: QVQLVESGGGLVQAGGSLRLSCAASGNSFPYYDMGWYRQAPGKERELVAAITSSASGTYYADSVKGRFTISRDNAKNTVYLQMNSLKPEDNAVYYCAAGVFFFTFDYWGQGTQVTVSS
- polyreactivity (PSR sort gate): low polyreactivity

Sequence: QVQLVESGGGLVQAGGSLRVSCAASGSTFYYYAMGGYSQAPGKERELVAAISSRGGSTYYADSVKGRFRISRDNAKNTVYLQMNSLKPEDTAVYYCAASSQRISPDHDYWGQGTQVTVSS
- polyreactivity (PSR sort gate): high polyreactivity

Sequence: QVQLVESGGGLVQAGGSLRLSCAASGRTFKYYTMGWYRQAPGKEREFVAAITSSGGRTYYADSVKGRFTISRDNAKNTVDLQMNSLKPEDTAVYYCAASTYRVWLAPATLSRYDYWGQGTQVTVSS
- polyreactivity (PSR sort gate): high polyreactivity

Sequence: QVQLVESGGGLVQAGGSLRLSSAASGFIFPDYAMGWYRQAPGKERELVAAISFRDGSTYYADSVKGRFTISRDNAKNTVYLQMNSLKPEDTAVYFCAVRQVNWFGIGYEDDYWGQGTQVTVSS
- polyreactivity (PSR sort gate): low polyreactivity

Sequence: QVQLVESGGGLVQARGSLRLSCAASGFIVSPNVMGWYRQAPGKERELVAVISSTGSTYYADSVKGRFTISRDNAKNTVYLQMNSLKPEDTAVYHCNADYSWYGSSGRPGYDYWGQGTQVTVSS
- polyreactivity (PSR sort gate): low polyreactivity

Sequence: QVQLVESGGGLVQAGGSLRLSCAASGSTFTWNAMGWYRQAPGKERELVASITWGGGGTYYADSVKGRFTISRDNAKNTVYLQMNSLKPEDTAVYYCAAGLWSPAYRGGYYYWGQGTQVTVSS
- polyreactivity (PSR sort gate): low polyreactivity

Sequence: QVQLVESGGGLVQSGGSLRLSCAASGFIFLSYAMGWYRQAPGKERELVAAISRRGGSTYYADSVKGRFTISRDNAKYTVYLQMNSLKPEDNAVYYCAADYGRITYNYWGQGTQVTVSS
- polyreactivity (PSR sort gate): high polyreactivity

Sequence: QVQLVESGGGLVQAGGSLRLSCAASGRIFGYNAMGWYRQAPGKERELVAAIRGGGSTYYADSVKGRFTISRDNAKNSVYLQMYSLKPEDSAFYFCAATSYTYVLSPYRGDYWGQGTQVNVSS
- polyreactivity (PSR sort gate): high polyreactivity

Sequence: QVQLVESGGGLFQAGGSLRISCAASGLTFKINAMGWYRQAPGKERELVAAISSGTSTNYADSVKGRFTISRDNAKNTVYLQMNSLKPEDTAVYYCAARGFWGVAYRYYYWGQGTQVTVSS
- polyreactivity (PSR sort gate): high polyreactivity
